# Laboratory results from patent US6800467B1, “Polypeptides having aminopeptidase activity and nucleic acids encoding same” (Novozymes Biotech, Inc., priority 1997, dated 2004).
# B1: aminopeptidase II: Recombinant Aspergillus oryzae 1568 (ATCC 20386) aminopeptidase II, 496 amino acids (SEQ ID NO:2), produced in Aspergillus oryzae or Fusarium (protein)
# chain: MRSLLWASLLSGVLAGRALVSPDEFPEDIQLEDLLEGSQQLEDFAYAYPERNRVFGGKAHDDTVNYLYEELKKTGYYDVYKQPQVHLWSNADQTLKVGDEEIEAKTMTYSPSVEVTADVAVVKNLGCSEADYPSDVEGKVALIKRGECPFGDKSVLAAKAKAAASIVYNNVAGSMAGTLGAAQSDKGPYSAIVGISLEDGQKLIKLAEAGSVSVDLWVDSKQENRTTYNVVAQTKGGDPNNVVALGGHTDSVEAGPGINDDGSGIISNLVIAKALTQYSVKNAVRFLFWTAEEFGLLGSNYYVSHLNATELNKIRLYLNFDMIASPNYALMIYDGDGSAFNQSGPAGSAQIEKLFEDYYDSIDLPHIPTQFDGRSDYEAFILNGIPSGGLFTGAEGIMSEENASRWGGQAGVAYDANYHAAGDNMTNLNHEAFLINSKATAFAVATYANDLSSIPKRNTTSSLHRRARTMRPFGKRAPKTHAHVSGSGCWHSQVEA
# Tests used:
# Assay type in all cases: biochemical
# [1] = Temperature stability of the aminopeptidase II, residual activity on Leu-pNA
# Method: The temperature stability of the aminopeptidase II was determined using the following protocol: 480 μl of 50 mM sodium phosphate buffer pH 7.5 was preincubated at 37°, 45°, 55°, 60°, 65°, 70°, and 75° C. for 30 minutes in a 1.7 ml Eppendorf tube. Then 20 μl of purified aminopeptidase II was added and the sample was then incubated for an additional 20 minutes. The samples were then placed on ice. Once the incubations were completed for all the temperatures, the samples were then assayed for activity using Leu-pNA as substrate.
# The assay was performed by mixing 100 μl of the incubation mixtures for the various temperatures with 100 μl of 2 mg/ml Leu-pNA in 50 mM sodium phosphate pH 7.5 buffer at ambient temperature. The absorbance at 405 nm was monitored for 5 minutes.
# soy bean meal tablets = test: Degree of hydrolysis (DH) assay, soy; conditions: vs 3 LAPUs FLAVOURZYME alone, 50° C., 18 hours
# Method: (§1) The purified aminopeptidase II described in Example 11 was tested in degree of hydrolysis assays using soy, wheat gluten, and casein as substrates according to the following procedure.
# (§2) The degree of hydrolysis (DH) assays were performed at 50° C. for 18 hours as a mini-hydrolysis on a 10 ml scale using soy bean meal tablets, wheat gluten meal tablets, and sodium-caseinate at a 2% concentration adjusted to pH 7, if necessary, with no pH adjustment during hydrolysis. The hydrolysates were inactivated at 85° C. for 3 minutes in a waterbath. The enzymes used were FLAVOURZYME™ and aminopeptidase II. The enzymes were dosed as follows. […] Upon hydrolysis, p-nitroanilide is liberated turning the solution yellow which is monitored 405 nm.
# (§3) The degree of hydrolysis (DH), as defined as described by Adler-Nissen (1986, Enzymic Hydrolysis of Food Proteins, Elsevier Applied Science Publishers), was determined by reaction of the supernatant with OPA (ortho-phtaldialdehyde, Sigma Chemical Co., St. Louis, Mo.) according to the following procedure The hydrolysate was diluted 100-fold into distilled water. […] The solution was then shaken well and after 2 minutes exactly, the absorbance at 340 nm was measured and compared to the absorbance of a 0.95 mM L-serine (distilled water) solution after subtraction of the blank value (water reacted with OPA reagent). […]
# [2] = tested on: wheat gluten meal tablets; test: Degree of hydrolysis (DH) assay, gluten; conditions: 50° C., 18 hours
# Method: as §1, §2, §3
# sodium-caseinate = test: Degree of hydrolysis (DH) assay, casein; conditions: vs 3 LAPUs FLAVOURZYME alone
# Method: as §1, §2, §3
# [3] = pH optimum using Ala-pNA as substrate in universal buffer
# Method: The purified aninopeptidase II described in Example 15 was used in the following characterizations.
# The Ala-pNA substrate was prepared by dissolving 100 mg of Ala-pNA in 1 ml of DMSO and adding 20 μl of the Ala-pNA/DMSO solution to 980 μl of the universal buffer at the various pH values. The assay was initiated by adding a 15 μl aliquot of the aminopeptidase II in 50 mM sodium phosphate pH 7.5 buffer to 200 μl of 2 mg/ml Ala-pNA at the various pH values at ambient temperature. The change in absorbance at 405 nm was monitored for 5 minutes. Autohydrolysis of the substrate as a control was determined by adding 15 μl of 50 mM sodium phosphate pH 7.5 buffer to 200 μl of 2 mg/ml Ala-pNA at the various pH values.
# gelatin = test: Degree of hydrolysis (DH) assay, gelatin
# [4] = 2 LAPUs aminopeptidase II added to 3 LAPUs FLAVOURZYME
# [5] = 5 LAPUs aminopeptidase II added to 3 LAPUs FLAVOURZYME
molecule,measurement,setting,value
B1,Percent activity relative to 37° C.,"[1]; 20 minutes at 37° C., pH 7.5, no substrate (reference)",100
same,Percent activity relative to 37° C.,"[1]; 20 minutes at 45° C., pH 7.5, no substrate",101
same,Percent activity relative to 37° C.,"[1]; 20 minutes at 55° C., pH 7.5, no substrate",99
same,Percent activity relative to 37° C.,"[1]; 20 minutes at 60° C., pH 7.5, no substrate",90
same,Percent activity relative to 37° C.,"[1]; 20 minutes at 65° C., pH 7.5, no substrate",73.7
same,Percent activity relative to 37° C.,"[1]; 20 minutes at 70° C., pH 7.5, no substrate",64.6
same,Percent activity relative to 37° C.,"[1]; 20 minutes at 75° C., pH 7.5, no substrate",46
same,increase of absolute DH,soy bean meal tablets; [4],at least 8%
same,increase of absolute DH,soy bean meal tablets; [5],≥ 10%
same,increase of absolute DH,[2]; [4],6%
same,increase of absolute DH,[2]; [5],9%
same,increase of absolute DH,sodium-caseinate; 1 LAPU aminopeptidase II added to 3 LAPUs FLAVOURZYME,7%
same,increase of absolute DH,sodium-caseinate; [4],9%
same,pH of optimal activity,"[3]; Ala-pNA as substrate, ambient temperature, enzyme of Example 15 (produced by Fusarium)",9.5-10
same,Avg. Activity,"[3]; pH 4.42, Ala-pNA, ambient temperature",0 mOD/min
same,Relative Activity,"[3]; pH 4.42, Ala-pNA, relative to pH 9.68",0
same,Avg. Activity,"[3]; pH 4.91, Ala-pNA, ambient temperature",2 mOD/min
same,Relative Activity,"[3]; pH 4.91, Ala-pNA, relative to pH 9.68",0.006
same,Avg. Activity,"[3]; pH 5.41, Ala-pNA, ambient temperature",7.8 mOD/min
same,Relative Activity,"[3]; pH 5.41, Ala-pNA, relative to pH 9.68",0.024
same,Avg. Activity,"[3]; pH 5.89, Ala-pNA, ambient temperature",13.9 mOD/min
same,Relative Activity,"[3]; pH 5.89, Ala-pNA, relative to pH 9.68",0.043
same,Avg. Activity,"[3]; pH 6.40, Ala-pNA, ambient temperature",16.37 mOD/min
same,Relative Activity,"[3]; pH 6.40, Ala-pNA, relative to pH 9.68",0.051
same,Avg. Activity,"[3]; pH 6.90, Ala-pNA, ambient temperature",23.48 mOD/min
same,Relative Activity,"[3]; pH 6.90, Ala-pNA, relative to pH 9.68",0.0727
same,Avg. Activity,"[3]; pH 7.27, Ala-pNA, ambient temperature",41.24 mOD/min
same,Relative Activity,"[3]; pH 7.27, Ala-pNA, relative to pH 9.68",0.128
same,Avg. Activity,"[3]; pH 7.59, Ala-pNA, ambient temperature",69.15 mOD/min
same,Relative Activity,"[3]; pH 7.59, Ala-pNA, relative to pH 9.68",0.214
same,Avg. Activity,"[3]; pH 8.03, Ala-pNA, ambient temperature",145.6 mOD/min
same,Relative Activity,"[3]; pH 8.03, Ala-pNA, relative to pH 9.68",0.45
same,Avg. Activity,"[3]; pH 8.62, Ala-pNA, ambient temperature",245.99 mOD/min
same,Relative Activity,"[3]; pH 8.62, Ala-pNA, relative to pH 9.68",0.761
same,Avg. Activity,"[3]; pH 9.25, Ala-pNA, ambient temperature",306.97 mOD/min
same,Relative Activity,"[3]; pH 9.25, Ala-pNA, relative to pH 9.68",0.95
same,Relative Activity,"[3]; pH 9.68, Ala-pNA (reference)",1.0
same,Avg. Activity,"[3]; pH 9.68, Ala-pNA, ambient temperature",323.15 mOD/min
same,Avg. Activity,"[3]; pH 10.51, Ala-pNA, ambient temperature",270.8 mOD/min
same,Relative Activity,"[3]; pH 10.51, Ala-pNA, relative to pH 9.68",0.838
same,Avg. Activity,"[3]; pH 10.95, Ala-pNA, ambient temperature",197.86 mOD/min
same,Relative Activity,"[3]; pH 10.95, Ala-pNA, relative to pH 9.68",0.612
same,increase of absolute DH,gelatin; 2 LAPUs added to 3 LAPUs FLAVOURZYME,4.9%
same,increase of absolute DH,gelatin; 5 LAPUs added to 3 LAPUs FLAVOURZYME,5.3%
